Test results published in the domain aggregation screens of Martell et al. (2025).

Assay: soluble fraction after stress (log2 fold change); higher = more stays soluble; pooled small domains, quantitative proteomics
Conditions: stress: 75 degC
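Note: 20 min heating vs room temperature control held 20 min.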

Row | Sequence | soluble fraction (log2)
1 | HMSEISAEAGKRIRYFRKSRSMTLEELAAVIHKSKATLSKYETGEISIDLDTLYDLAVALQVRAEQLLPAS | -4.35
2 | HMSEITMMQMEIPEGHNWENRLVKDVSMPTGSLAVMIKRHGETLIPGGDTRILAGDTIVLSVPAYESG | -0.112
3 | HMSEIYVDDINRKILYLLSQGIKTKSLLEHIPLSMSGIEKRKKQLKMLFSVEDGKDETLLEMAKEKGF | -2
4 | HMSEKAQSENEDLIKILALLIHAAKIDENYSEKEKKLIISFAEMSSNKKLDREQINSLVDKAEQYEK | -0.532
5 | HMSEKLLTLNEISEKLRVSRHTVQAWVSPSSPNHRPEFSSLARHAGRKTVFLESDVDAWLAQRR | -1.07
6 | HMSEKYPPIDWNNIKTGQSVLIKDINQVVSLTKLPDSKGFAEVQMGLIKTKIKAEKLAATDKKPNK | -0.326
7 | HMSELDSYIGARLRMRRLMLGMSQEALGEKLSLTFQQIQKYEKGTNRVSASRLYELAQVLDVPVQFFFDGA | -2.98
8 | HMSENDTILAKFASIINNKSLELVIFPDTAYLKGQVSTPEDKARAETVAQSLLGSKPLISLIEFE | -0.386
9 | HMSENPLTSREIEIVQLLANGKTTKSIAEELHLSNGTIRNYVSIVLDKLNVSNRIEAIRKALDKGWL | -1.81
10 | HMSEPQEISYSDFIEQVNRNEIRQVEFDGQHEYLTVIRKDTSRFKVIIPAPDPRLLDDLMEHDVEIVGKE | -0.123
11 | HMSEQYEQIQLALKTLTQDEQDIVRLVVVEGASLRTAGKNLGVSAMTIQRRLKRALARLRDLLAS | -0.839
12 | HMSESKYKMIKNWIKSKILDGTLVPNQKIYSESELMEIFDVSRHTVRLAIGELVSEGYLFKRQGTGTFVTQ | -2.82
13 | HMSETTSRVLQLLGLLQARRVWTGQELADRLGVTGRSVRRDIERLRDLGYPVHASKGRDGGYQLGA | -1.61
14 | HMSEYILATNDGEFLRITSYSKEEGGMLVWEKTSSIVSAEHKVIPYSQIINIKDRNGDVVWDKD | -0.988
15 | HMSEYNPGIYRVTDPALNIRTGPGVEYPVVGVIKDQGSYTITEIRNKSWGRLLSGAGSTAIKHIVFT | 0.214
16 | HMSFEITGDELILRFVKDKGGATTEQIRKHWEASNRGGKSDNNLTNLVKSGKLLRSKDPNGPGSLYTAS | -0.0632
17 | HMSFESMGLTPRQADVLTLLLQGKSNKDIARRLVLSVETVKDHVQAVLRALGVSSRTQAVLAVGQMTQQ | -0.584
18 | HMSFGYFQLRAKDPQKLKSVLEKIPQIQSIKEEKGDLIGYLNADMEAEELSQKLAAAKIFVTHMAKKK | -0.583
19 | HMSFISRMVVAVEDIALSTRPNSTPSGDKYVSKGTVLLMEKRENDWVEVRQPSSPLSGWAPKTSLLSV | -0.246
20 | HMSFNLSETKKLILEEIQKGVSSVTQIAATAGISKGMTYNHLRELKLMGYIADGDSGYVITDAGKIAS | -0.448
21 | HMSFRYLHVKRQLMSLIGTMNAHERLPSRTDLSETFQVARTTIERAISELIGEGWLYARDGSGTYVAER | -3.45
22 | HMSFSTHHEYYIYNLAVDMRKGYDGLSGLVVNELGRQPWDGSVYVFFNTMRDKVKLLVWDTDGYVIYSKR | -0.279
23 | HMSFTDLILKSANAIDEMGGIWENGKQILGEKAIAIHEEIVDNGLNPDKDGFYKLANGQMIQYG | 0.0518
24 | HMSFVEVTVSELKNYVNSHARIKLKSGKEFKGFILDANEEGVIIKVQLRGGTAESTISYNRIDRAAVF | -4.01
25 | HMSGAERAAALLVALGPEVASEIMKFLDDESIQKLASEIAKIEVLSPQEKEDLIGQFLLELKKT | -0.419

Row | Sequence | soluble fraction (log2)
26 | HMSGAWEVGLLRQFTDWMGTQYNAYAGRNFDAITVAQVAEKNPELLTPFVESFFKERVEPALAAG | -1.08
27 | HMSGEDYLERILMLKEKHGNVRAIDIANSMNFSKPSVSIALHKLSENGYVVIQNNGAIELTEKGLEVAT | -0.455
28 | HMSGEIPFPPAFKPSADHIAIASEKGINIETELLNFRDYHQARGTKLIDWNSAFRVWLRNAR | -0.531
29 | HMSGEITVPNLIGVEAIQAKTLLIQAGFLIKEFYDLDSTQPAGVVIRQAPEAGTTQTIGKSVTITINKQ | -1.25
30 | HMSGENAVLTEGTMVTVRRGGETITATARKETVKQFLSRMDIIPGSREMVGIELMENSVMLTISD | -0.889
31 | HMSGFPTDAQIVREIRNILPTLENPTPRMVRKALENTFEVDMGESKTKKYINNIIITEYEKWSSVQSIRE | -0.603
32 | HMSGGNTSAFKGKLNYEYRGNDTIITGSTYPVKELIKKAGGRWDPGSSAWIIKGRHVSDNEIF | 0.054
33 | HMSGQKDVPDLYGMTVKQAKKEVEAAGFKLKEGKEVYSNDYSKGQIAEQDPESGSKAKKGSSITVHVSKG | 0.0162
34 | HMSGRIWTDNYGRTIEADVIKVNINRTVLLEFTDKKTKTVSFDTFISKDIQYLEYLLTRRNRGKL | -3.98
35 | HMSGRVPTADDIAVGMKVYVPRLGGTGTVVTEPVRDKVVIQVGSLRLHAEVAELLLPDEHGRIQVPR | -0.844
36 | HMSGTGSYVALLRDPQGNVGKVVVKGSKGEQVLSQPQQAARLDGATPSYEVTGRQIAEDFGRALAV | 0.144
37 | HMSGTYIATVEAGSLDIYKSMTSNETIGKASRGDVFQILEDMGSGYARVSYNDVEGYMSIKTGDASIEEL | 0.113
38 | HMSGVSESIEKKIQYLLLEKPLPLHDLIEAIEIGKEEDRLKVLRSLMDSDTVKIEDDLYHWNA | -0.133
39 | HMSGYSTLFTRMSREDAQAVVSLLQDDGIEYRYNDDTGTVQVPSATVDQTRAKLVSAGYPRS | -0.268
40 | HMSHANAALTPRARLRLAKLIVEEHWPVATAAKMFMVSPPTARKWATRFRAEGPAGMADRSSRP | -1.63
41 | HMSHFRMLPSITEADAFLKSRSLPAGLEVREQVDAFLAQARQTLALAQEAPWLSKQEVLETLADEFVQTS | -0.652
42 | HMSHFSERLKSLRQQSSITQAKLADDLNVTKSLISMYESGQRLPSFEMLETIADYFNVPLSSLV | -0.541
43 | HMSHGFFTLQSDDLNLLRTVLEGHSSIGDIKIEGIQLVAYLKEPLNGAELNKILFEKGINLSYLVHRK | -2.9
44 | HMSHGFVHLKGAVQHPGIYPVKENTRWDEVVKAAGGLTAAADIQQVNLAKVASDQESLYVPEKGET | 0.149
45 | HMSHGSIYFSGKTGLKGSVDINGTVNSINKKIFLKPGNYNFLIKADGYKNLKGSFQISKGDKKFVELVLIP | -2.1
46 | HMSHGYVELKAENNDALISALENHTWFENIKLDPETNLVKAILTKPIEAENLNKMLFEKGIILSHLVKRK | -0.376
47 | HMSHYDILEVDPKASATEIKQSFRKKSLQYHPDRNKSSDAHEYMTKITEAYNILGDKDKRRHYDMELKL | 0.568
48 | HMSHYEYKVGDRVNLLDYDDFGILYKEKDNFYNVVVYYNGEFVEVNVKRITLEVAAKELYPEGYDLSTLFV | -3.97
49 | HMSIASASVKEKIRDIVSSEPPQKPFSDAKIAEILAEDGIAIARRTVAKYREEIGIPTKSLRKR | -0.0706
50 | HMSIDNALLTLIGKTGTAQTVLRPSGKVVIGDEVYDAVTAGEFIDKGSAIVVTRVEATQLYVEASEA | -0.411
